Test in all cases: SPR; BIAcore 2000; His-tagged AtRGS1 (284-459 aa) immobilised on sensor chip CM5 by amine coupling; AlF4-bound Gα flowed at 6.25-400 nM in running buffer with 20 mM NaF and 100 µM AlCl3; 25°C, 10 µl/min; 10 mM Hepes, 150 mM NaCl, 3 mM EDTA, 0.005% Tween-20, 100 µM GDP, 10 mM MgCl2; 1:1 Langmuir model
Conditions in all cases: both partners purified

One experiment concerns the target T1, His-AtGPA1 (Arabidopsis thaliana, UniProt P18064 1-383).
T1 construct: Arabidopsis thaliana heterotrimeric G protein alpha subunit AtGPA1; also called Arabidopsis thaliana Gα; wild type Arabidopsis Gα subunit; not shown: His6, N-terminal, kept
T1 sequence (looked up): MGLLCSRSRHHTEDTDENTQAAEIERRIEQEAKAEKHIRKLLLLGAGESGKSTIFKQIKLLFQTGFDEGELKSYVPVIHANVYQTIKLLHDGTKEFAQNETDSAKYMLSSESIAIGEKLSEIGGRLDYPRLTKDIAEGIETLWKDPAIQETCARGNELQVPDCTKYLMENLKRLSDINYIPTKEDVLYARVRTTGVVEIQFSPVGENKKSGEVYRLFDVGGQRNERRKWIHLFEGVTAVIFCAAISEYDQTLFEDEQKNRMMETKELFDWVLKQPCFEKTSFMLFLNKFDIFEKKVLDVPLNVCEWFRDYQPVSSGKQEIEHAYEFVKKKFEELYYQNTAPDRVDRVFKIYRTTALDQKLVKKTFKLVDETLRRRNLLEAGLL

The target in a further experiment is T2, AtGPA1-T194N (Arabidopsis thaliana, UniProt P18064 1-383, T194N).
T2 construct: Arabidopsis thaliana heterotrimeric G protein alpha subunit AtGPA1 with T194N (switch I); No tag cleavage is described; also called T194N mutant Arabidopsis Gα subunit
T2 sequence (looked up): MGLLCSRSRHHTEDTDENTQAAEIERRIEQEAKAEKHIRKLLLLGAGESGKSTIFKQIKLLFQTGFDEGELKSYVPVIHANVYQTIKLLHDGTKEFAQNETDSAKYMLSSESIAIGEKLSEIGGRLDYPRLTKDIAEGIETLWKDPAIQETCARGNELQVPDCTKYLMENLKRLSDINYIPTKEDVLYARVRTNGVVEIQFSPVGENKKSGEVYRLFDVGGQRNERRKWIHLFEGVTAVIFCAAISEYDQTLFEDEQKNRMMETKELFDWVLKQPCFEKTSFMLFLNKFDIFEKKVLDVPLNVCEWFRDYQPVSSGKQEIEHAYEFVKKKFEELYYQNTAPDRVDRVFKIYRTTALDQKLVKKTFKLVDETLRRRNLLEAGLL

A further experiment has as its target T3, OsRGA1 (Oryza sativa, UniProt Q0DJ33 1-380).
T3 construct: Oryza sativa heterotrimeric G protein alpha subunit OsRGA1; cDNA synthesized with codon usage optimised for E. coli; No tag cleavage is described; also called rice Gα; wild type rice Gα subunit
T3 sequence (looked up): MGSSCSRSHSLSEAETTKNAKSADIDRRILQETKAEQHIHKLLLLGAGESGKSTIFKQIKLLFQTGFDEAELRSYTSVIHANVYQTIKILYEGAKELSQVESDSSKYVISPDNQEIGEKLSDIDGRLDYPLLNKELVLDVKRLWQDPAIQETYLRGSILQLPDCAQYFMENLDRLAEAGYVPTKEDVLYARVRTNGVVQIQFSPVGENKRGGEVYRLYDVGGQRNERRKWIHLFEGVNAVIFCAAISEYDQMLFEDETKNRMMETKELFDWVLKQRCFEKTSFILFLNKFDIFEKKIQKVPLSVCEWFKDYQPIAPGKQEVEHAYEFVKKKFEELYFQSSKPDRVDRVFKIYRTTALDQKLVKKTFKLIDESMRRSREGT

The next experiment deals with T4, OsRGA1-N195T (Oryza sativa, UniProt Q0DJ33 1-380, N195T).
T4 construct: Oryza sativa heterotrimeric G protein alpha subunit OsRGA1 with N195T (switch I); printed as N191T in two paragraphs; also called OsRGA1-N191T; 195T mutant rice Gα subunit
T4 sequence (looked up): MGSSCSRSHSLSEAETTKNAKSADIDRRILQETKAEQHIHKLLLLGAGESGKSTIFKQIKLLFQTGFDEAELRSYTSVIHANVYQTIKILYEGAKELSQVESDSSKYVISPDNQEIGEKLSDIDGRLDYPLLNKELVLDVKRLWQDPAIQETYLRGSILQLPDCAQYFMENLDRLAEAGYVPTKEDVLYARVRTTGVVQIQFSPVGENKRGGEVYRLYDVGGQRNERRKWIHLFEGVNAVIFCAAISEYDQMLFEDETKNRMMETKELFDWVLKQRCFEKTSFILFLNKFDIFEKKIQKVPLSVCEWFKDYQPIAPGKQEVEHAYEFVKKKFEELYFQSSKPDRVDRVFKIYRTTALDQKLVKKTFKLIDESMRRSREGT

B1: Recombinant His-AtRGS1 (284–459 aa) (domain or fragment, Arabidopsis thaliana, UniProt Q8H1F2 284-459, looked up)
chain: KEEFRPVDPNEPLDKLLLNKRFRHSFMEFADSCYAGETLHFFEEVYEHGKIPEDDSIRRIYMARHIMEKFIVAGAEMELNLSHKTRQEILTTQDLTHTDLFKNALNEVMQLIKMNLVRDYWSSIYFIKFKEEESCHEAMHKEGYSFSSPRLSSVQGSDDPFYQEHMSKSSRCSSPG
notes: Arabidopsis thaliana Regulator of G protein Signaling 1 (AtRGS1), residues 284-459
With B1, the equilibrium dissociation constant (Kd) with His-AtGPA1 is 17.4 nM; in the experiment with AtGPA1-T194N, 115 nM; with OsRGA1 it was 56.7 nM; with OsRGA1-N195T it was 4.83 nM. Also, the koff in the experiment with His-AtGPA1 stood at 0.00616 s⁻¹; with AtGPA1-T194N, 0.0134 s⁻¹; with OsRGA1, 0.0217 s⁻¹; in the experiment with OsRGA1-N195T, 0.00584 s⁻¹. In addition, the kon with His-AtGPA1 was 353000 M⁻¹ s⁻¹; with AtGPA1-T194N, 117000 M⁻¹ s⁻¹; with OsRGA1, 383000 M⁻¹ s⁻¹; with OsRGA1-N195T, 1.21e+06 M⁻¹ s⁻¹.

These data come from article PMC3386157, “G Protein Activation without a GEF in the Plant Kingdom” (PLoS Genetics, 2012).
